Reference: patent US20090209433

Molecular target: VDAC from Yeast (voltage dependent anion selective channel), purified (UniProt P04840)

**Q.** What does the source list for “bovine cytochrome c oxidase holoenzyme (crystal grade)”?
**A.** KM (µM) at VDAC 50 nM: 28 µM; KM (µM) at VDAC 100 nM: 44 µM; KM (µM) at VDAC 200 nM: 59 µM; VMAX (µM/min) at VDAC 50 nM: 132 µM/min; VMAX (µM/min) at VDAC 100 nM: 199 µM/min; VMAX (µM/min) at VDAC 200 nM: 224 µM/min; VMAX/KM (1/min) at VDAC 50 nM: 4.7 min⁻¹; VMAX/KM (1/min) at VDAC 100 nM: 4.5 min⁻¹; VMAX/KM (1/min) at VDAC 200 nM: 3.8 min⁻¹
